According to patent publication US20240084003A1 (SIMCERE ZAIMING PHARMACEUTICAL, published 2024):

T1: human CD22, full length, on CHO-K1-human CD22 2C4 cells (human, UniProt P20273 20-847)
T1 construct: Full-length human CD22 (NCBI NP_001762.2) stably transfected into CHO-K1
T1 sequence: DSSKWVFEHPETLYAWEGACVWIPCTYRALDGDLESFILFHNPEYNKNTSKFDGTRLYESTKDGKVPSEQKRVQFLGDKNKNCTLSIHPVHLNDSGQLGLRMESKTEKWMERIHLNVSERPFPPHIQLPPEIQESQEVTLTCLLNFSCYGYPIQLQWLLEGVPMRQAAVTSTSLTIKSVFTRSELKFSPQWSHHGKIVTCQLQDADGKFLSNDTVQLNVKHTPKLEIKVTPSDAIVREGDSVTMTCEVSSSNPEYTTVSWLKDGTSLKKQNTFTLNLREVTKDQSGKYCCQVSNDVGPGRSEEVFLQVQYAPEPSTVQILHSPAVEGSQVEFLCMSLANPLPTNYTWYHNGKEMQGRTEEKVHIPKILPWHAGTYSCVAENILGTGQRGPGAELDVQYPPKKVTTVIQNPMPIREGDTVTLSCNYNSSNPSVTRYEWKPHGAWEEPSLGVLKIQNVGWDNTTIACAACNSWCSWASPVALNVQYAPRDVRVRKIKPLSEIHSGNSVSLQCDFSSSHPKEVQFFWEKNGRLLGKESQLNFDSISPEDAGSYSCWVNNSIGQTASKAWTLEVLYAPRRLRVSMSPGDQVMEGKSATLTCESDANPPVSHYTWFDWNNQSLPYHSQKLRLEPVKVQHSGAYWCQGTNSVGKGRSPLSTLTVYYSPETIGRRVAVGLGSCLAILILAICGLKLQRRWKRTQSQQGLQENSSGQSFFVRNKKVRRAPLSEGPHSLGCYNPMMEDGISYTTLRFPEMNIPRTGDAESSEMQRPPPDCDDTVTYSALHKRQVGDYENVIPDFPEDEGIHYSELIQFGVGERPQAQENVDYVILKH

T2: murine CD22 protein (ACROBiosystems, SI2-M52Ha) (murine, UniProt P35329 22-708)
T2 construct: extracellular domain; also called murine CD22-ECD; murine CD22-ECD-His
T2 sequence (looked up): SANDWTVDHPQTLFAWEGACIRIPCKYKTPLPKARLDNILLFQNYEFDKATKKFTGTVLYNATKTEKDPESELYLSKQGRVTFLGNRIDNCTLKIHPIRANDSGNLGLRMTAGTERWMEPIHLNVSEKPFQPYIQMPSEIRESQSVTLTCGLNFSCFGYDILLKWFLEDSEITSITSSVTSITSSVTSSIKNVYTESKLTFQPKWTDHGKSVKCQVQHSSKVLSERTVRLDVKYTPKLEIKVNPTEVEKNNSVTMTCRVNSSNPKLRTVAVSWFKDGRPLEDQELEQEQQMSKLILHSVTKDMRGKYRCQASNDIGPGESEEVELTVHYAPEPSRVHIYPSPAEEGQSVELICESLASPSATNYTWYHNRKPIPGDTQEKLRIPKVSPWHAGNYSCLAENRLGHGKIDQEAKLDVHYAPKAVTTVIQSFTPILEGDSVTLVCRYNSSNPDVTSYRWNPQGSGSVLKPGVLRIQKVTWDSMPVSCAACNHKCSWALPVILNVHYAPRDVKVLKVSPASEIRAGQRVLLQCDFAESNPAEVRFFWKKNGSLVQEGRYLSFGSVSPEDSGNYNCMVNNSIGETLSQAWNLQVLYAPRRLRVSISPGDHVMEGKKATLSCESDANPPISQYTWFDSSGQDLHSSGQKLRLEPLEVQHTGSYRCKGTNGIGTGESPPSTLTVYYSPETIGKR

T3: human CD22, endogenous on Raji cells (human, UniProt P20273 20-847)
T3 construct: whole, on cells; Endogenous protein of the Raji cell line
T3 sequence (looked up): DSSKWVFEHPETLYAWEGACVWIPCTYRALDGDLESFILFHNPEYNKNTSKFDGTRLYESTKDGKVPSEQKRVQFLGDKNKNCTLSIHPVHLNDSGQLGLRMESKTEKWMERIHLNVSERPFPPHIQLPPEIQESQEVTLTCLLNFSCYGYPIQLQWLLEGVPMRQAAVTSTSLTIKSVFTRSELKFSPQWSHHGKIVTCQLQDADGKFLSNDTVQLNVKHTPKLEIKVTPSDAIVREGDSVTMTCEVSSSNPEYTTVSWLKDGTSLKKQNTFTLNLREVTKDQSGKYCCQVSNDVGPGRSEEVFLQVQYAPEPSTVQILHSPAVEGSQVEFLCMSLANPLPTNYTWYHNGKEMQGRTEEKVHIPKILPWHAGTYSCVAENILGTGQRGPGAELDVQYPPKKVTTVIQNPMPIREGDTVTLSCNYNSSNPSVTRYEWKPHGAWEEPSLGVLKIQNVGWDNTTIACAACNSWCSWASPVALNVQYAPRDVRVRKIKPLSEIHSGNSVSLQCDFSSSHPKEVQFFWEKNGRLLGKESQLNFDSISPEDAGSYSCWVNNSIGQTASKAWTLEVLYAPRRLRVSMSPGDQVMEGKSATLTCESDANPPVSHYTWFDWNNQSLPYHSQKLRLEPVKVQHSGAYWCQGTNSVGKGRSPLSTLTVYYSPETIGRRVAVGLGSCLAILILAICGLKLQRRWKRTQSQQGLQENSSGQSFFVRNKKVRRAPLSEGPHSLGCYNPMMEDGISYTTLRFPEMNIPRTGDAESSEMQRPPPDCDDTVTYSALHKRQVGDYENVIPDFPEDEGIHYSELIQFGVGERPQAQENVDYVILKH


Experiments:
[1] = target: T1, human CD22, full length, on …; assay: FACS, CHO-K1-human CD22 2C4 cells
From the text: (§1) The required cells were scale-up cultured in a T-75 cell culture flask to the logarithmic growth phase. For the adherent cell CHO-K1, the medium was aspirated, the cells were washed 2 times with PBS buffer, and then digested with trypsin. After the digestion was terminated, the cells were washed 2 times with PBS buffer. For suspension cell Raji, the medium supernatant was directly centrifuged and discarded, and the cell pellet was washed 2 times with PBS. After counting the cells in the previous step, the cell pellet was resuspended with [PBS+2% (w/w) BSA] blocking solution to 2×10⁶ cells/ml, and added to a 96-well FACS reaction plate at 50 μl/well, and then the chimeric antibody test sample was added at 50 μl/well, and incubated on ice for 2 hours. The mixture was centrifuged and washed 3 times with PBS buffer, Alexa Flour 488-labeled secondary antibody (purchased from Invitrogen, catalog number: A-11013) was added at 50 μl/well, and incubated on ice for 1 hour. The obtained mixture was centrifuged and washed 5 times with PBS, and FACS (FACS Canto™, purchased from BD Company) was used for detection and result analysis. Data analysis was performed by software (CellQuest) to obtain the mean fluorescence density (MFI)of the cells. And then software (GraphPad Prism8) was used for analysis, data fitting, and EC50 value calculation. […] The same method was used to detect the binding of the chimeric antibodies to endogenous CD22-negative cell MoLT4 cells (purchased from ATCC, CRL-1582) and CHO-K1 cells.

[2] = target: T2, murine CD22 protein (ACROBiosystems, …); assay: ELISA, coated murine CD22, 100 nM Ab
Procedure: (§2) In order to detect the binding activity of CD22 human-murine chimeric antibodies to CD22 protein, the purified human CD22-ECD-His protein obtained in Example 2 was diluted with PBS to a final concentration of 2 μg/mL, and then added to 96-well ELISA plate at 100 μl/well. The plate was sealed with plastic film and incubated overnight at 4° C., the plate was washed 2 times with PBS the next day, and then a blocking solution [PBS+2% (w/w) BSA] was added for blocking at room temperature for 2 hours. […] After incubation at 37° C. for 2 hours, the plate was washed 3 times with PBS. HRP (horseradish peroxidase)-labeled secondary antibody (purchased from Sigma, catalog number: A0170) was added, and incubated at 37° C. for 2 hours, and the plate was washed 5 times with PBS. TMB substrate was added at 50 μl/well, and incubated at room temperature for 30 minutes, then a stop solution (1.0 N HCl) was added at 50 μl/well.
(§3) In order to detect the species cross-binding activity of the chimeric antibodies, an ELISA plate was coated with commercial murine CD22 protein (ACROBiosystems, catalog number: SI2-M52Ha) and monkey CD22 protein (ACROBiosystems, catalog number: SI2-R52Ha), respectively, and the ELISA detection was performed according to the method in Example 5.1.

[3] = target: T2, murine CD22 protein (ACROBiosystems, …); assay: ELISA, coated murine CD22, 0.1 nM Ab
Procedure: as §2, §3

[4] = target: T2, murine CD22 protein (ACROBiosystems, …); assay: ELISA, coated murine CD22, 0.00001 nM Ab
Procedure: as §2, §3

[5] = target: T2, murine CD22 protein (ACROBiosystems, …); assay: ELISA, coated murine CD22, 0.01 nM Ab
Procedure: as §2, §3

[6] = target: T2, murine CD22 protein (ACROBiosystems, …); assay: ELISA, coated murine CD22, 0.0001 nM Ab
Procedure: as §2, §3

[7] = target: T2, murine CD22 protein (ACROBiosystems, …); assay: ELISA, coated murine CD22, 0.001 nM Ab
Procedure: as §2, §3

[8] = target: T2, murine CD22 protein (ACROBiosystems, …); assay: ELISA, coated murine CD22, 10 nM Ab
Procedure: as §2, §3

[9] = target: T3, human CD22, endogenous on Raji cells; assay: FACS, Raji cells
From the text: as §1

Binder	EC50 [1] [nM]	Maximum mean fluorescence intensity [1] [MFI]	OD450 [2] [OD450]	OD450 [3] [OD450]	OD450 [4] [OD450]	OD450 [5] [OD450]	OD450 [6] [OD450]	OD450 [7] [OD450]	OD450 [8] [OD450]	EC50 [9] [nM]	Maximum mean fluorescence intensity [9] [MFI]
F1.105.11 human-murine chimeric antibody (antibody, human IgG1, kappa, V domains shown, Chimeric, human IgG1 / kappa; VL tied by name) VH: EVQLQQSGPVLVKPGASVKMSCKASGYTFSDYFMNWVKQSHGKSLEWIGIINSYSGGTSYNQKFKGKATLTVDKSSSTAYMELNSLTSEDSAVYYCARWMDYWGQGTSVTVSS VL: DVQITQSPSYLAASPGETITINCRTSESISKHLAWYQEKPGKTNKLLIYSGSTLQSGIPSRFSGSGSGTDFTLTISSLEPEDFAMYYCQQHNEYPWTFGGGTKLEIKR	2.53	28300	0.08	0.05	0.05	0.05	0.05	0.05	0.05	1.39	24400
m971-hIgG1 (antibody, V domains shown, Positive control anti-human CD22 antibody; V regions from US 8,591,889 B on human IgG1 constant regions) VH: QVQLQQSGPGLVKPSQTLSLTCAISGDSVSSNSAAWNWIRQSPSRGLEWLGRTYYRSKWYNDYAVSVKSRITINPDTSKNQFSLQLNSVTPEDTAVYYCAREVTGDLEDAFDIWGQGTMVTVSS VL: DIQMTQSPSSLSASVGDRVTITCRASQTIWSYLNWYQQRPGKAPNLLIYAASSLQSGVPSRFSGRGSGTDFTLTISSLQAEDFATYYCQQSYSIPQTFGQGTKLEIKR	–	–	0.11	0.07	0.07	0.07	0.07	0.06	0.08	–	–
F1.231.15 human-murine chimeric antibody (antibody, human IgG1, V domains shown, Chimeric: murine V regions on human IgG1 heavy constant region and kappa light constant region) VH: QVQLQQPGAELVKPGASVKLSCKTSGYTFTIYWMQWVKQRPGRGLEWIGRIDPHSGDTHYNENFTTKVTLTVDETSNTAYMHLSGLTSEDSAVYYCARRDYSYYVLDYWGQGTSVTVSS VL: DVVLTQTPLSLPVSLGDQASISCRSSQSLVHINGDTYLHWYLQKPGQSPKLLIYTVFNRFSGVPDRFSGSGSGTDFTLKISRVEAEDLGAYFCSQSTHVPYTFGGGTKLEIKR	1.18	35400	0.06	0.05	0.06	0.05	0.05	0.05	0.06	0.45	28800
